Experimental findings from the Immune Epitope Database (IEDB) are described below.

For one test, the target named is HLA-B*51:01. Nature of the test: IEDB peptide-MHC binding, purified MHC/competitive/fluorescence; filed as Kd, often an IC50 or EC50 that approximates it; ≥ and ≤ were set here for values at or beyond the usual limits of such assays.
The target of the next test is HLA-A*29:02. Described as above. The note with it: source organism: Campylobacter jejuni subsp. jejuni NCTC 11168 = ATCC 700819.
A further test has as its target HLA-B*39:01. The test is described as above. The note with it: source organism: Campylobacter jejuni subsp. jejuni NCTC 11168 = ATCC 700819.
The target in a further test is HLA-A*02:12. The test is described as above. The note with it: source organism: Campylobacter jejuni subsp. jejuni NCTC 11168 = ATCC 700819.
In a further test the target is HLA-A*02:19. The test is described as above. The note with it: source organism: Campylobacter jejuni subsp. jejuni NCTC 11168 = ATCC 700819.
The target in test [1] is HLA-A*02:01. The description is as above. The note with it: source organism: Campylobacter jejuni subsp. jejuni NCTC 11168 = ATCC 700819.
In test [2] the target is HLA-A*26:01. Described as above.
For test [3], the target named is HLA-A*03:01. Described as above. Conditions: source organism: Campylobacter jejuni subsp. jejuni NCTC 11168 = ATCC 700819.
Another test has as its target HLA-B*57:01. The description is as above.
The next test addresses HLA-B*15:01. Described as above.
The target of test [4] is HLA-B*18:01. The description is as above.
Another test deals with HLA-A*02:16. The description is as above. The note with it: source organism: Campylobacter jejuni subsp. jejuni NCTC 11168 = ATCC 700819.
Another test addresses HLA-A*23:01. Described as above. Conditions: source organism: Campylobacter jejuni subsp. jejuni NCTC 11168 = ATCC 700819.
A further test concerns the target HLA-B*27:03. The test is described as above.
The next test has as its target HLA-A*02:11. The test is described as above. Conditions: source organism: Campylobacter jejuni subsp. jejuni NCTC 11168 = ATCC 700819.
The target of another test is HLA-A*68:02. Described as above. Conditions: source organism: Campylobacter jejuni subsp. jejuni NCTC 11168 = ATCC 700819.
The target of the next test is HLA-A*69:01. Described as above. Conditions: source organism: Campylobacter jejuni subsp. jejuni NCTC 11168 = ATCC 700819.
The next test deals with HLA-A*02:03. The description is as above. Conditions: source organism: Campylobacter jejuni subsp. jejuni NCTC 11168 = ATCC 700819.
Test [5] deals with HLA-B*15:17. The test is described as above.
The target in test [6] is HLA-B*46:01. Described as above.
The next test has as its target HLA-A*24:03. Described as above. The note with it: source organism: Campylobacter jejuni subsp. jejuni NCTC 11168 = ATCC 700819.
The next test deals with HLA-B*58:01. Nature of the test: IEDB peptide-MHC binding, cellular MHC/competitive/fluorescence; ≥ and ≤ were set here for values at or beyond the usual limits of such assays. Conditions: source organism: Human herpesvirus 4 strain B95-8.
For test [7], the target named is HLA-A*25:01. Nature of the test: IEDB peptide-MHC binding, purified MHC/direct/fluorescence; filed as Kd, often an IC50 or EC50 that approximates it; ≥ and ≤ were set here for values at or beyond the usual limits of such assays. The note with it: source organism: Cryptosporidium parvum Iowa II.
Test [8] deals with HLA-A*80:01. Described as above. The note with it: source organism: Cryptosporidium parvum Iowa II.
The target in test [9] is HLA-A*26:01. Described as above. Conditions: source organism: Cryptosporidium parvum Iowa II.
The target of test [10] is HLA-A*03:01. The description is as above. Conditions: source organism: Cryptosporidium parvum Iowa II.
Test [11] deals with HLA-B*18:01. The test is described as above. Conditions: source organism: Cryptosporidium parvum Iowa II.
The target of test [12] is HLA-B*15:17. Described as above. Conditions: source organism: Cryptosporidium parvum Iowa II.
The target of test [13] is HLA-B*46:01. Described as above. Conditions: source organism: Cryptosporidium parvum Iowa II.
For test [14], the target named is HLA-A*25:01. Put plainly: IEDB peptide-MHC binding, purified MHC/competitive/fluorescence; filed as Kd, often an IC50 or EC50 that approximates it; ≥ and ≤ were set here for values at or beyond the usual limits of such assays. Conditions: source organism: Homo sapiens.
Test [15] concerns the target HLA-A*80:01. The description is as above. The note with it: source organism: Homo sapiens.
Test [16] concerns the target HLA-A*02:01. Put plainly: IEDB peptide-MHC binding, purified MHC/direct/fluorescence; filed as Kd, often an IC50 or EC50 that approximates it; ≥ and ≤ were set here for values at or beyond the usual limits of such assays. Conditions: source organism: Homo sapiens.
The mark [17] stands for this setting: source organism: Campylobacter jejuni subsp. jejuni NCTC 11168 = ATCC 700819.

Where only a bound is given, the exact number is not on record here.

Take LELAEITAE: the Kd with HLA-B*51:01 (setting [17]), in the test with HLA-A*29:02, with HLA-B*39:01, in the test with HLA-A*02:12, with HLA-A*02:19 and with HLA-A*02:01 [1] was at least 20 µM each time. For the same sequence, the Kd (usually the concentration at which binding is half-saturated) is at least 20 µM with HLA-A*26:01 [2] (setting [17]); at least 20 µM in the test with HLA-A*03:01 [3]; at least 20 µM with HLA-B*57:01 (setting [17]); at least 20 µM in the test with HLA-B*15:01 (setting [17]); 0.511 µM with HLA-B*18:01 [4] (setting [17]); at least 20 µM with HLA-A*02:16. Moreover, the Kd with HLA-A*23:01, in the test with HLA-B*27:03 (setting [17]), with HLA-A*02:11, with HLA-A*68:02, in the test with HLA-A*69:01 and with HLA-A*02:03 was at least 20 µM throughout. Also, the Kd with HLA-B*15:17 [5] (setting [17]), in the test with HLA-B*46:01 [6] (setting [17]) and in the test with HLA-A*24:03 was at least 20 µM in each case.
Consider NAAEPEQPW, for which the IC50 (as a rule, the concentration that inhibits the measured activity by half) with HLA-B*58:01 amounted to 5 µM.
RAIMTTWTV: the Kd with HLA-A*25:01 [7] was at least 20 µM; with HLA-A*80:01 [8], at least 20 µM; with HLA-A*26:01 [9], at least 20 µM; with HLA-A*03:01 [10], at least 20 µM; in the test with HLA-B*18:01 [11], at least 20 µM; with HLA-B*15:17 [12] it was 0.06 µM. Also, in the test with HLA-B*46:01 [13], the Kd was at least 20 µM.
HLLCQAFSV: the Kd in the test with HLA-B*51:01 (source organism: Homo sapiens), in the test with HLA-A*25:01 [14], with HLA-A*80:01 [15], in the test with HLA-A*26:01 [2] (source organism: Homo sapiens), with HLA-B*57:01 (source organism: Homo sapiens) and in the test with HLA-B*15:01 (source organism: Homo sapiens) was at least 20 µM in each case. Moreover, the Kd with HLA-B*18:01 [4] (source organism: Homo sapiens) is at least 20 µM; in the test with HLA-B*27:03 (source organism: Homo sapiens), at least 20 µM; with HLA-B*15:17 [5] (source organism: Homo sapiens), at least 20 µM; with HLA-B*46:01 [6] (source organism: Homo sapiens), at least 20 µM; with HLA-A*02:01 [16], 0.0002 µM.
